# Patent US20240123029A1 (HUMANITAS MIRASOLE S P A, published 2024)
# B1: Purified C-reactive protein (CRP) (other)
# chain: QTDMSRKAFVFPKESDTSYVSLKAPLTKPLKAFTVCLHFYTELSSTRGYSIFSYATKRQDNEILIFWSKDIGYSFTVGGSEILFEVPEVTVAPVHICTSWESASGIVEFWVDGKPRVRKSLKKGYTVGAEASIILGQEQDSFGGNFEGSQSLVGDIGNVNMWDFVLSPDEINTIYLGGPFSPNVLNWRALKYEVQGEVFTKPQLWP
# Biological target: T1, SARS-CoV-2 S1 protein, His Tag (SARS-CoV-2, UniProt P0DTC2 16-685)
# T1 construct: domain: S1; Bought
# Assay: ELISA, His-tagged viral protein captured on nickel plates (6.25-50 pmol/mL)
binder,measurement,value
B1,binding result,no binding (tested: CRP 3 µg/mL)
